Results published in paper PMC5415409 (Nature cell biology, 2017).

Target: Growth Factor Receptor-bound 2 (GRB2), endogenous in HEK cells (human (endogenous in HEK), UniProt P62993 1-217)
Assay: co-IP

densitometry ratio SWELL1/GRB2 in the GRB2 immunoprecipitate: 0.31
B1: wild-type SWELL1 (SWELL1^WT), transiently expressed in HEK cells (natural protein, UniProt Q8IWT6 1-810, looked up)
chain: MIPVTELRYFADTQPAYRILKPWWDVFTDYISIVMLMIAVFGGTLQVTQDKMICLPCKWVTKDSCNDSFRGWAAPGPEPTYPNSTILPTPDTGPTGIKYDLDRHQYNYVDAVCYENRLHWFAKYFPYLVLLHTLIFLACSNFWFKFPRTSSKLEHFVSILLKCFDSPWTTRALSETVVEESDPKPAFSKMNGSMDKKSSTVSEDVEATVPMLQRTKSRIEQGIVDRSETGVLDKKEGEQAKALFEKVKKFRTHVEEGDIVYRLYMRQTIIKVIKFILIICYTVYYVHNIKFDVDCTVDIESLTGYRTYRCAHPLATLFKILASFYISLVIFYGLICMYTLWWMLRRSLKKYSFESIREESSYSDIPDVKNDFAFMLHLIDQYDPLYSKRFAVFLSEVSENKLRQLNLNNEWTLDKLRQRLTKNAQDKLELHLFMLSGIPDTVFDLVELEVLKLELIPDVTIPPSIAQLTGLKELWLYHTAAKIEAPALAFLRENLRALHIKFTDIKEIPLWIYSLKTLEELHLTGNLSAENNRYIVIDGLRELKRLKVLRLKSNLSKLPQVVTDVGVHLQKLSINNEGTKLIVLNSLKKMANLTELELIRCDLERIPHSIFSLHNLQEIDLKDNNLKTIEEIISFQHLHRLTCLKLWYNHIAYIPIQIGNLTNLERLYLNRNKIEKIPTQLFYCRKLRYLDLSHNNLTFLPADIGLLQNLQNLAITANRIETLPPELFQCRKLRALHLGNNVLQSLPSRVGELTNLTQIELRGNRLECLPVELGECPLLKRSGLVVEEDLFNTLPPEVKERLWRADKEQA
